Experiment [1] has as its target T1, DDB1·CRBN precomplexed with PT-179 (human, UniProt Q96SW2 1-442; Q16531 1-1140). The experiment in a line: BLI, immobilized MBP-degron; ratio of the KD values.
The target in experiment [2] is T1, DDB1·CRBN precomplexed with PT-179. The experiment in a line: BLI, immobilized MBP-degron, DDB1·CRBN precomplexed with PT-179.
The target in experiment [3] is T2, DDB1·CRBN precomplexed with pomalidomide (human, UniProt Q96SW2 1-442; Q16531 1-1140).
T2 construct: also called CRBN·pomalidomide
The experiment in a line: BLI, immobilized MBP-degron, DDB1·CRBN precomplexed with pomalidomide.

Experiment [4] has as its target T1, DDB1·CRBN precomplexed with PT-179. In words: bio-layer interferometry, immobilized MBP-degron, DDB1·CRBN precomplexed with PT-179.
Experiment [5] concerns the target T2, DDB1·CRBN precomplexed with pomalidomide. The experiment in a line: bio-layer interferometry, immobilized MBP-degron, DDB1·CRBN precomplexed with pomalidomide.

Where no end group is shown, it is not given here.

T1 sequence (Q96SW2 whole entry, chain 1 of 2): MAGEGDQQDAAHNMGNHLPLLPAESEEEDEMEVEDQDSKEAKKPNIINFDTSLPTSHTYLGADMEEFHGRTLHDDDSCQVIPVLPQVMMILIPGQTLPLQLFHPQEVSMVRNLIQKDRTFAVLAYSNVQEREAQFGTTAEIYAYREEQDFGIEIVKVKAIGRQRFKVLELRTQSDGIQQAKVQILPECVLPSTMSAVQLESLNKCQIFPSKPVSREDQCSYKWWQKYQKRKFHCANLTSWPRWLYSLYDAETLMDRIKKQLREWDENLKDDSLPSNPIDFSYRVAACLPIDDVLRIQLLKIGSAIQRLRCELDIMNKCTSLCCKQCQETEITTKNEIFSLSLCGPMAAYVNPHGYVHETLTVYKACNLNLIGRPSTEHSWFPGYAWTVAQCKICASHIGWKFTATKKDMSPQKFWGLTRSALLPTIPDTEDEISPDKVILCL
T1 sequence (Q16531 whole entry, chain 2 of 2): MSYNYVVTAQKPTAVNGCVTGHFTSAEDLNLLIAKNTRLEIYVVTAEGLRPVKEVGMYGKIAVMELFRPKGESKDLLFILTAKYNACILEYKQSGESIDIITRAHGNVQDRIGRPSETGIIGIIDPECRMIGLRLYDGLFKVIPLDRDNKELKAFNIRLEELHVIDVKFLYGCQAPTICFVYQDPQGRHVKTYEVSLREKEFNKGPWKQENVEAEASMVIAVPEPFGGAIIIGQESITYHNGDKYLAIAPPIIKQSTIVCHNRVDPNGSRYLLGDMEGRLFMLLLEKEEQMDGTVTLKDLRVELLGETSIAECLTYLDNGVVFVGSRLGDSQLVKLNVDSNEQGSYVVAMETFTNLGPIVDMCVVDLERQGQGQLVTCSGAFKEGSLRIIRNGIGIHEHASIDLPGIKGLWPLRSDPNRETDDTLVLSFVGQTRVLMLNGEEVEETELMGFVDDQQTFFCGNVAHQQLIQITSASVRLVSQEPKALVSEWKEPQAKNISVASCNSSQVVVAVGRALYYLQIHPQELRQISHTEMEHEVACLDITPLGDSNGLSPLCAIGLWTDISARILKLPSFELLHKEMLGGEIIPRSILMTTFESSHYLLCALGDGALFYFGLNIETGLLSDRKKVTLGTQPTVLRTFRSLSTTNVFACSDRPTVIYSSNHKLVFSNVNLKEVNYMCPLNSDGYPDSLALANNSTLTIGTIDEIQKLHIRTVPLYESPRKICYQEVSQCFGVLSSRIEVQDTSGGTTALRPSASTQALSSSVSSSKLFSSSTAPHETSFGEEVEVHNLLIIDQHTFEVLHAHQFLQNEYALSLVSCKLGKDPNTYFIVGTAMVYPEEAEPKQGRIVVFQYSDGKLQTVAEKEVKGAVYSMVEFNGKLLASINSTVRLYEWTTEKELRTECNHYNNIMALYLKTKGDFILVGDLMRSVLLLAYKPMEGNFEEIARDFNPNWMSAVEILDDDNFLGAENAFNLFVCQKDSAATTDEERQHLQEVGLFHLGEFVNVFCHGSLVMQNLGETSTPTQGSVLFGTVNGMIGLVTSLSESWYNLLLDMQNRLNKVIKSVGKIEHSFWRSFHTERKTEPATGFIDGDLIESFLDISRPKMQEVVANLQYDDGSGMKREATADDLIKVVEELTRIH
T2 sequence (Q96SW2 whole entry, chain 1 of 2): as the sequence (Q96SW2 whole entry, chain 1 of 2) above
T2 sequence (Q16531 whole entry, chain 2 of 2): as the sequence (Q16531 whole entry, chain 2 of 2) above

B1: MBP-SD40 (minimal evolved degron SD40 fused to maltose binding protein) (designed binder, not shown: large carriers)
chain: LLLFCPICGFTCRQKGNLLRHINLHTGEKLFKYHLY
modifications: cysteine pairing not given here; also: fused to maltose binding protein, limits and linker not given here
notes: Expressed and purified from E. coli, immobilized for BLI; also called MBP-degron
On to B1, for which, in experiment [1], the “fold preference for CRBN precomplexed with PT-179 over CRBN precomplexed with pomalidomide” value worked out at 2.4 fold. Besides, the Kd stood at 123 nM in experiment [2] and 295 nM in experiment [3]. Moreover, the koff in experiment [4] turned out to be 0.00528 s⁻¹; in experiment [5] it was 0.0161 s⁻¹. The results for the kon in experiment [4] and in experiment [5] were 42900 M⁻¹ s⁻¹ and 54600 M⁻¹ s⁻¹, respectively.

B2: MBP-SD0 (super degron SD0 fused to maltose binding protein) (designed binder, not shown: large carriers)
chain: FNVLMVHKRSHTGERPLQCEICGFTCRQKGNLLRHIKLHTGEKPFKCHLCNYACQRRDAL
notes: also called MBP-degron
In turn, B2 returned a Kd in experiment [3] of 217 nM. In experiment [5], the koff amounted to 0.0509 s⁻¹ and the kon was determined as 235000 M⁻¹ s⁻¹.

(Values after patent US20250109177A1 (BROAD INSTITUTE, published 2025).)
